Residue numbers refer to the chain shown, from its start.
B1: antibody 992 (antibody, human IgG1, kappa, V domains shown)
VH: EVQLQQPGSELVRPGASVKLSCKASGYTFTSYWMHWVKQRPGQGLEWIGNIYPGSRSTNYDEKFKSKATLTVDTSSSTAYMQLSSLTSEDSAVYYCTRNGDYYVSSGDAMDYWGQGTSVTVSS
VL: DIQMTQTTSSLSASLGDRVTISCRTSQDIGNYLNWYQQKPDGTVKLLIYYTSRLHSGVPSRFSGSGSGTDFSLTINNVEQEDVATYFCQHYNTVPPTFGGGTKLEIKR
notes: Chimeric mouse/human IgG1 kappa; the VL entry includes the human kappa constant region
B2: antibody 1208 (antibody, human IgG1, kappa, V domains shown)
VH: EVQLVESGGGLVKPGGSLKLSCAASGFAFSSYDMSWVRQTPEKRLEWVAYIGSGDDNTHYPDSVKGRFTISRHNAKNTLYLQMSSLKSEDTAMYYCARQKYGNYGDTMDYWGQGTSVTVSS
VL: DVVMTQTPLSLPVSLGDQASISCRSSQSLVHSNGNTYLHWYLQKPGQSPKLLIYKVSNRFSGVPDRFSGSGSGTDFTLKISRVEAEDLGVYFCSQSTHVPTFGGGTKLEIKR
notes: Chimeric IgG1 kappa; also called clone 1208
B3: antibody 1344 (antibody, human IgG1, kappa, V domains shown)
VH: QVQLKESGPGLVAPSQSLSITCTVSGFSLTIYGVHWVRQPPGKGLEWLGVIWAGGNTNYNSALMSRLSISKDNSKSQVFLKMNSLQTDDTAMYFCARGYGYNLDYWGQGTTLTVSS
VL: DIQMTQTTSSLSASLGDRVTISCSASQGISNYLNWYQQKPDGTVKLLIYYTSSLHSGVPSRFSGSGSGTDYSLTISNLEPEDIATYYCQQYSKLPYTFGGGTKLEIKR
notes: Chimeric IgG1 kappa
B4: antibody 1308 (antibody, human IgG1, kappa, V domains shown)
VH: EVQLQQSGAELVRPGSSVKISCKASGYAFSSYWMNWVRQRPGQGLEWIGQIYPGDGDTNYNGKFKGRATLTANKSSSTAYMQLSSLTSEDSAVYFCARRASSLYDVYPYYFDYWGQGTTLTVSS
VL: B3 VL with S24R, G28D, L46V, S53R, P80Q, Y87F, Y91G, S92N, K93T
notes: Chimeric IgG1 kappa
B5: antibody 1347 (antibody, human IgG1, kappa, V domains shown)
VH: QVQLKESGPGLVAPSQSLSITCTVSGFSLTGHGVNWVRQPPGKGLEWLGMIWGDGSTDYNSTLKSRLSISKDNSKSQVFLKMNSLQTDDTARYYCARGYGYLYYFDYWGQGTTLTVSS
VL: ENVLTQSPAIMSASPGEKVTMTCRASSSVSSSYLHWYQQKSGASPKLWIYSTSNLASGVPARFSGSGSGTSYSLTVNSVETEDAATYYCHQYSGFPFTFGSGTKLELKR
notes: Chimeric IgG1 kappa

Each binder was assayed against T1, recombinant human EGFR extracellular domain with 6xHis (human, UniProt P00533 25-645) (assay: SPR competition, competitor Ab-3).
T1 construct: In-house produced; also called 6xHis EGFR ECD; soluble human EGFR ECD; not shown: 6xHis tag
Experimental: (§1) SPR analysis was performed on a Biacore 3000 machine containing four flow cells. A CM5 Biacore chip was conjugated with 10,000 Resonance units (Ru) polyclonal anti-His antibody to flow cells 1-4 according to the manufacturer's instructions. […] Immediately after antigen injection the maximal binding of the Anti-EGFR mAb without competition was established in each flow cell during a reference run. Briefly 5 μl antibody at a concentration of 40 μg/ml was injected over all flow cells with captured EGFR followed by stripping of the antibody/antigen complex with a low pH acid wash (10 sec. contact time with 10 mM Glycine-HCl, pH2). After the determination of Anti-EGFR antibody maximal binding to each flow cell, a competition run was performed during the same Biacore cycle. Flow cells were first saturated with EGFR ECD antigen followed by injection of different reference antibodies or Anti-EGFR antibodies into separate flow cells using the same antigen saturating conditions as outlined above. This step was immediately followed by a second injection of Anti-EGFR antibody over the flow cell saturated with EGFR antigen and competition antibody to minimize the dissociation of either antigen or blocking antibody. Then the antibody/antigen complexes were stripped off with a low pH acid wash (10 sec. contact time with 10 mM Glycine-HCl, pH 2) and the whole cycle beginning with the reference run was repeated with a new Anti-EGFR antibody. The degree of inhibition of tested Anti-EGFR antibodies were determined by comparing the Ru max value of the individual Anti-EGFR antibody before and after competition by introduction of report points recorded two seconds before and after injection of each sample.
For B1, the “% inhibition” value was 7%.
For B2, the “% inhibition” value was 5%.
For B3, the “% inhibition” value was 25%.
With B4 the “% inhibition” value was 11%.
With B5 the “% inhibition” value was 11%.

Each binder was assayed against T1, recombinant human EGFR extracellular … (assay: SPR competition, competitor 1261).
Experimental: as §1
B1 was tested, and the “% inhibition” value was -13%.
For B2, the “% inhibition” value was 13%.
With B3 the “% inhibition” value was 71%.
With B4 the “% inhibition” value was -9%.
For B5, the “% inhibition” value was -23%.

What follows are binders tested against T1, recombinant human EGFR extracellular … (assay: SPR competition, competitor Ab-10).
Experimental: as §1
In the case of B1, the “% inhibition” value is reported as -4%.
B2 was tested, and the “% inhibition” value was 32%.
For B3, the “% inhibition” value was 0%.
In the case of B4, the “% inhibition” value is reported as -3%.
For B5, the “% inhibition” value was -1%.

What follows are binders tested against T1, recombinant human EGFR extracellular … (assay: SPR competition, competitor Erbitux).
Experimental: as §1
In the case of B1, the “% inhibition” value is reported as 90%.
In the case of B2, the “% inhibition” value is reported as 18%.
With B3 the “% inhibition” value was -4%.
With B4 the “% inhibition” value was -6%.
For B5, the “% inhibition” value was -4%.

What follows are binders tested against T1, recombinant human EGFR extracellular … (assay: SPR competition, competitor 1257).
Experimental: as §1
With B1 the “% inhibition” value was 16%.
B2 was tested, and the “% inhibition” value was 9%.
For B3, the “% inhibition” value was 83%.
For B4, the “% inhibition” value was 27%.
B5 was tested, and the “% inhibition” value was 19%.

Each binder was assayed against T1, recombinant human EGFR extracellular … (assay: SPR competition, competitor 1208).
Experimental: as §1
B1 was tested, and the “% inhibition” value was 109%.
For B2, the “% inhibition” value was 78%.
For B3, the “% inhibition” value was 3%.
In the case of B4, the “% inhibition” value is reported as 1%.
B5 was tested, and the “% inhibition” value was 0%.

Each binder was assayed against T1, recombinant human EGFR extracellular … (assay: SPR competition, competitor 1277).
Experimental: as §1
With B1 the “% inhibition” value was 110%.
In the case of B2, the “% inhibition” value is reported as 40%.
With B3 the “% inhibition” value was 10%.
For B4, the “% inhibition” value was 7%.
With B5 the “% inhibition” value was 6%.

Each binder was assayed against T1, recombinant human EGFR extracellular … (assay: SPR competition, competitor 1030corr).
Experimental: as §1
B1 was tested, and the “% inhibition” value was -18%.
With B2 the “% inhibition” value was 27%.
In the case of B3, the “% inhibition” value is reported as 31%.
For B4, the “% inhibition” value was -2%.
In the case of B5, the “% inhibition” value is reported as -2%.

Each binder was assayed against T1, recombinant human EGFR extracellular … (assay: SPR competition, competitor Vectibix).
Experimental: as §1
For B1, the “% inhibition” value was 125%.
With B2 the “% inhibition” value was 25%.
With B3 the “% inhibition” value was 8%.
With B4 the “% inhibition” value was -7%.
In the case of B5, the “% inhibition” value is reported as -5%.

Biological target: T1, recombinant human EGFR extracellular …
Assay: SPR competition, competitor Erbitux
Remark: another data set of the same source
Experimental: as §1
B1 was tested, and the “% inhibition” value was 90%.
B2 was tested, and the “% inhibition” value was 18%.
For B3, the “% inhibition” value was -4%.
In the case of B4, the “% inhibition” value is reported as -6%.
For B5, the “% inhibition” value was -4%.

These binders were tested against T1, recombinant human EGFR extracellular … (assay: SPR competition, competitor Ab-11).
Experimental: as §1
For B1, the “% inhibition” value was -3%.
In the case of B2, the “% inhibition” value is reported as 4%.
With B3 the “% inhibition” value was 86%.
B4 was tested, and the “% inhibition” value was 85%.
In the case of B5, the “% inhibition” value is reported as 86%.

Each binder was assayed against T1, recombinant human EGFR extracellular … (assay: SPR competition, competitor 1254).
Experimental: as §1
For B1, the “% inhibition” value was 128%.
With B2 the “% inhibition” value was 33%.
In the case of B3, the “% inhibition” value is reported as 10%.
For B4, the “% inhibition” value was 0%.
In the case of B5, the “% inhibition” value is reported as 0%.

What follows are binders tested against T1, recombinant human EGFR extracellular … (assay: SPR competition, competitor 1284).
Experimental: as §1
With B1 the “% inhibition” value was 6%.
B2 was tested, and the “% inhibition” value was 4%.
With B3 the “% inhibition” value was 81%.
In the case of B4, the “% inhibition” value is reported as 76%.
B5 was tested, and the “% inhibition” value was 61%.

These binders were tested against T1, recombinant human EGFR extracellular … (assay: SPR competition, competitor 1344).
Experimental: as §1
B1 was tested, and the “% inhibition” value was 9%.
For B2, the “% inhibition” value was 7%.
In the case of B3, the “% inhibition” value is reported as 83%.
With B4 the “% inhibition” value was 67%.
In the case of B5, the “% inhibition” value is reported as 38%.

What follows are binders tested against T1, recombinant human EGFR extracellular … (assay: SPR competition, competitor 1347).
Experimental: as §1
With B1 the “% inhibition” value was 7%.
With B2 the “% inhibition” value was 4%.
B3 was tested, and the “% inhibition” value was 15%.
With B4 the “% inhibition” value was 65%.
For B5, the “% inhibition” value was 70%.

The binders below were run against T1, recombinant human EGFR extracellular … (assay: SPR competition, competitor Ab-1).
Experimental: as §1
B1 was tested, and the “% inhibition” value was 99%.
B2 was tested, and the “% inhibition” value was 37%.
For B3, the “% inhibition” value was -2%.
For B4, the “% inhibition” value was -5%.
For B5, the “% inhibition” value was -3%.

The binders below were run against T1, recombinant human EGFR extracellular … (assay: SPR competition, competitor 1320).
Experimental: as §1
With B1 the “% inhibition” value was -38%.
In the case of B2, the “% inhibition” value is reported as 30%.
In the case of B3, the “% inhibition” value is reported as 8%.
B4 was tested, and the “% inhibition” value was 2%.
B5 was tested, and the “% inhibition” value was 2%.

Biological target: T1, recombinant human EGFR extracellular …
Assay: SPR competition, competitor Vectibix
Remark: another data set of the same source
Experimental: as §1
With B1 the “% inhibition” value was 106%.
B2 was tested, and the “% inhibition” value was 29%.
For B3, the “% inhibition” value was -5%.
B4 was tested, and the “% inhibition” value was -8%.
In the case of B5, the “% inhibition” value is reported as -6%.

What follows are binders tested against T1, recombinant human EGFR extracellular … (assay: SPR competition, competitor 1260).
Experimental: as §1
In the case of B1, the “% inhibition” value is reported as -10%.
For B2, the “% inhibition” value was 4%.
For B3, the “% inhibition” value was 87%.
With B4 the “% inhibition” value was 86%.
B5 was tested, and the “% inhibition” value was 41%.

The binders below were run against T1, recombinant human EGFR extracellular … (assay: SPR competition, competitor 1024).
Experimental: as §1
For B1, the “% inhibition” value was -55%.
B2 was tested, and the “% inhibition” value was 3%.
B3 was tested, and the “% inhibition” value was 3%.
For B4, the “% inhibition” value was 3%.
In the case of B5, the “% inhibition” value is reported as 4%.

What follows are binders tested against T1, recombinant human EGFR extracellular … (assay: SPR competition, competitor 992 corr).
Experimental: as §1
B1 was tested, and the “% inhibition” value was 96%.
In the case of B2, the “% inhibition” value is reported as 100%.
For B3, the “% inhibition” value was 9%.
With B4 the “% inhibition” value was -9%.
In the case of B5, the “% inhibition” value is reported as 7%.

These binders were tested against T1, recombinant human EGFR extracellular … (assay: SPR competition, competitor 1449).
Experimental: as §1
With B1 the “% inhibition” value was 98%.

Each binder was assayed against T1, recombinant human EGFR extracellular … (assay: SPR competition, competitor ICR10).
Experimental: as §1
For B1, the “% inhibition” value was -4%.
For B2, the “% inhibition” value was 5%.
For B3, the “% inhibition” value was 87%.
B4 was tested, and the “% inhibition” value was 15%.
For B5, the “% inhibition” value was 17%.

The binders below were run against T1, recombinant human EGFR extracellular … (assay: SPR competition, competitor Ab-5).
Experimental: as §1
In the case of B1, the “% inhibition” value is reported as 1%.
For B2, the “% inhibition” value was 66%.
For B3, the “% inhibition” value was -3%.
With B4 the “% inhibition” value was -4%.
For B5, the “% inhibition” value was -1%.

Reference: patent US20110135636A1 (SYMPHOGEN A S, published 2011)
